# The supplement of paper PMC10065799, “High-throughput profiling of sequence recognition by tyrosine kinases and SH2 domains using bacterial peptide display” (eLife, 2023)
# Columns and labels:
# MERTK = MERTK (UniProt Q12866); assay: phosphorylation enrichment, bacterial display (enrichment ratio); higher = better substrate or ligand; peptides without Tyr show the background
# Fer (mouse) = assay: as above
# AncSZ = assay: as above
# FGFR1 = FGFR1 (UniProt P11362); assay: as above
# FGFR3 = FGFR3 (UniProt P22607); assay: as above
# Chain of FGFR3 (P22607 whole entry, looked up): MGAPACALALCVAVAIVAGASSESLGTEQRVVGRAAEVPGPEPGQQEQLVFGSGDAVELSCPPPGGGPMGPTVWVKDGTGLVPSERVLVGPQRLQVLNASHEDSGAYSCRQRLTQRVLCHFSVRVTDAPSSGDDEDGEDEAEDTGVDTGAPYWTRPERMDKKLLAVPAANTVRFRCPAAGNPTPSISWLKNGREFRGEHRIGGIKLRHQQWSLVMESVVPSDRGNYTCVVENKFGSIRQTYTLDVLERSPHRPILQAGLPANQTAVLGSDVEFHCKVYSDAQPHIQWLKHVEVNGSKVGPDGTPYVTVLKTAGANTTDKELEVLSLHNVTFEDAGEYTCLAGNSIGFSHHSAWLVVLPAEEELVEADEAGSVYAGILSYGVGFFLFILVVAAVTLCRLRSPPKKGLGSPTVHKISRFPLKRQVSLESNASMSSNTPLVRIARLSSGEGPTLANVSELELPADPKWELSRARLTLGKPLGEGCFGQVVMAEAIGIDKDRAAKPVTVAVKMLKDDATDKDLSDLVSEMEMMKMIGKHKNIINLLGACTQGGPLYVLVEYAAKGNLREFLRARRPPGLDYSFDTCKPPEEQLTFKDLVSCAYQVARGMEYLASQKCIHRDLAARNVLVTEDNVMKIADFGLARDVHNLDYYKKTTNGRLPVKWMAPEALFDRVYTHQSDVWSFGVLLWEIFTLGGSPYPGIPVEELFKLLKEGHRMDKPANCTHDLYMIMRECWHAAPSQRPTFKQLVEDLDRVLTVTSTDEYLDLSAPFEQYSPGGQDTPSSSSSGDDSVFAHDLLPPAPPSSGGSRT
# EPHB1 = EPHB1 (UniProt P54762); assay: as above
# Chain of EPHB1 (P54762 whole entry, looked up): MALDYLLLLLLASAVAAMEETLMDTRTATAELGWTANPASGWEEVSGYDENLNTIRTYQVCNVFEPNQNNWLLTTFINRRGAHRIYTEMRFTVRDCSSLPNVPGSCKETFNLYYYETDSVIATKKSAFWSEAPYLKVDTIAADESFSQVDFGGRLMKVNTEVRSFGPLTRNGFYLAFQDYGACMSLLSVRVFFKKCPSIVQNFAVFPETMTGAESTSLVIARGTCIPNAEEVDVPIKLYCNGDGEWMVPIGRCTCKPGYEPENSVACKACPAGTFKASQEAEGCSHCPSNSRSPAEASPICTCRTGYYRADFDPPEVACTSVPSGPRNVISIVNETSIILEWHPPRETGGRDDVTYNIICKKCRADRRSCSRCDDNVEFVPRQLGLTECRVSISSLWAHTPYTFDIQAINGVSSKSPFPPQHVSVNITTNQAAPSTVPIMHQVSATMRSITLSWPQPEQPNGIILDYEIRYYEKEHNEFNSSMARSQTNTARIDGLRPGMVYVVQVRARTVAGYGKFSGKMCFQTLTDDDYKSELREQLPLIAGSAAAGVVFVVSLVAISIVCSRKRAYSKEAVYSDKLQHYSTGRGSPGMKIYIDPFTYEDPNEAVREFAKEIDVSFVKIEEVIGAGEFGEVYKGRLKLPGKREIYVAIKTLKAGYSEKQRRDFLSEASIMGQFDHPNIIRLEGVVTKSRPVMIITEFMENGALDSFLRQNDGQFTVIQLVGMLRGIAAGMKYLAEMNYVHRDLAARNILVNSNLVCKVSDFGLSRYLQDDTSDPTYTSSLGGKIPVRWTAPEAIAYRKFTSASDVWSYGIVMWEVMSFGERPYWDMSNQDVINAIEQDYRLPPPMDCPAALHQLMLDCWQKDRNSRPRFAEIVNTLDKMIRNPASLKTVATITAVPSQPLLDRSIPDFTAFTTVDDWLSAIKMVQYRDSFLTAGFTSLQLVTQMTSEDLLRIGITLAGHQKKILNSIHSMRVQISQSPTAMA
# c-Src = assay: as above
# Fes = Fes (UniProt P07332); assay: as above
# Chain of Fes (P07332 whole entry, looked up): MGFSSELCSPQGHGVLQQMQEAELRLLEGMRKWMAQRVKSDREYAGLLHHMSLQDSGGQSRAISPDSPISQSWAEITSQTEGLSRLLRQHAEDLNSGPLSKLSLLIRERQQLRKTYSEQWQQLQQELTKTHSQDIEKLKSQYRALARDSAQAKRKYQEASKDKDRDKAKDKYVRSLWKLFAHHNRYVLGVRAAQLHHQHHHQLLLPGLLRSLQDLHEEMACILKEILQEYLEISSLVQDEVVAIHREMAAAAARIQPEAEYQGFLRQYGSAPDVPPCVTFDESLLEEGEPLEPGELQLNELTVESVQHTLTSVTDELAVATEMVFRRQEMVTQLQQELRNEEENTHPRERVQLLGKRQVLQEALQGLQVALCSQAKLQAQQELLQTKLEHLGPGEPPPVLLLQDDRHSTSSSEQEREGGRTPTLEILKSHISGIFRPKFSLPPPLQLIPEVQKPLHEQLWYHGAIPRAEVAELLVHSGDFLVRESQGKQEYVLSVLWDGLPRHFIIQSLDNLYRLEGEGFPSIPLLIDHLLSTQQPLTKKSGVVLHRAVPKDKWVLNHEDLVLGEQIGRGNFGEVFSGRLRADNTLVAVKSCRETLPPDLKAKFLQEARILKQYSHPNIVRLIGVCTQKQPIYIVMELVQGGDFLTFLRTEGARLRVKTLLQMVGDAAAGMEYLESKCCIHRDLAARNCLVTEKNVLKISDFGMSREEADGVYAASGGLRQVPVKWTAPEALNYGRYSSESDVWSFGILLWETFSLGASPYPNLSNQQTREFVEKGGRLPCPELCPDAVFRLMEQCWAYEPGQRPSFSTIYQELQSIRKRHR
# Fyn = Fyn (UniProt P06241); assay: as above
# Chain of Fyn (P06241 whole entry, looked up): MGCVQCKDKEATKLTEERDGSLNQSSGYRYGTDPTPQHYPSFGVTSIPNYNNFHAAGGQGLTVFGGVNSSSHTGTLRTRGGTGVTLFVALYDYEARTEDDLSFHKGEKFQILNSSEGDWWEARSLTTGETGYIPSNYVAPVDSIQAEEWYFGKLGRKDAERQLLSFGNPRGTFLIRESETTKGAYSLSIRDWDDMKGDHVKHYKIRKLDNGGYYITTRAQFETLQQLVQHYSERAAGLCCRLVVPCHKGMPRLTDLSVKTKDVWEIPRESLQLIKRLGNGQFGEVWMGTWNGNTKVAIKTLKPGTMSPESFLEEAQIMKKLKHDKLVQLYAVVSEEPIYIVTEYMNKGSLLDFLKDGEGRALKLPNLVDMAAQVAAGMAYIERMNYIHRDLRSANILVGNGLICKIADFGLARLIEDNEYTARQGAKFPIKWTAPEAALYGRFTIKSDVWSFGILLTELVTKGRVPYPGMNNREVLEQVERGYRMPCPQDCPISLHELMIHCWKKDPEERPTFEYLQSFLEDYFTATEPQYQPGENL
# Hck = Hck (UniProt P08631); assay: as above
# Chain of Hck (P08631 whole entry, looked up): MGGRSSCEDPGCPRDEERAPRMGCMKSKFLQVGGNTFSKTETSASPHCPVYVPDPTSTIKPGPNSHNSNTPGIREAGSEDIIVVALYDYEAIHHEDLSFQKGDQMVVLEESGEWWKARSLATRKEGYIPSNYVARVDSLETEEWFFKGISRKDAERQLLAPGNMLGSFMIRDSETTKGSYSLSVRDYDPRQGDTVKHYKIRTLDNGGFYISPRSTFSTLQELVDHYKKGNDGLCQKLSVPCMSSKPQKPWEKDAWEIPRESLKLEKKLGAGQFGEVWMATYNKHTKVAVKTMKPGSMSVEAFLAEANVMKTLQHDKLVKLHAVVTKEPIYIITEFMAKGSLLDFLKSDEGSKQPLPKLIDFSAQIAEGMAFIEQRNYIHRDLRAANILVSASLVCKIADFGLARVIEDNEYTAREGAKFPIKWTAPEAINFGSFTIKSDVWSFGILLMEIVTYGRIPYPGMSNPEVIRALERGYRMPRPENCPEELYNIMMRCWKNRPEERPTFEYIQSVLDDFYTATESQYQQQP
# c-Abl (mouse) = assay: as above
# EPHB2 = EPHB2 (UniProt P29323); assay: as above
# Jak2 = Jak2 (UniProt O60674); assay: as above
# SHP2-C SH2 = assay: SH2 binding enrichment of the phosphorylated peptide, bacterial display (enrichment ratio); higher = better substrate or ligand; peptides without Tyr show the background
# Grb2 SH2 = Grb2 SH2 (UniProt P62993); assay: as above
# c-Src SH2 = assay: as above
# 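For SH2 binding enrichment of the phosphorylated peptide, bacterial display in this document: peptide library displayed on the E. coli surface as eCPX fusions, selected cells deep-sequenced, score is each peptide's frequency after selection divided by its frequency in the input.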
# 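For phosphorylation enrichment, bacterial display in this document: 11-residue human phosphosite peptides and single-mutation variants displayed on the E. coli surface, counted by deep sequencing, each peptide's frequency after selection divided by its frequency in the unselected input library; frequency after pTyr selection over input frequency; kinase dosed for 20-30% of maximal phosphorylation in three min.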
# Chain of FGFR1 (P11362 whole entry, looked up): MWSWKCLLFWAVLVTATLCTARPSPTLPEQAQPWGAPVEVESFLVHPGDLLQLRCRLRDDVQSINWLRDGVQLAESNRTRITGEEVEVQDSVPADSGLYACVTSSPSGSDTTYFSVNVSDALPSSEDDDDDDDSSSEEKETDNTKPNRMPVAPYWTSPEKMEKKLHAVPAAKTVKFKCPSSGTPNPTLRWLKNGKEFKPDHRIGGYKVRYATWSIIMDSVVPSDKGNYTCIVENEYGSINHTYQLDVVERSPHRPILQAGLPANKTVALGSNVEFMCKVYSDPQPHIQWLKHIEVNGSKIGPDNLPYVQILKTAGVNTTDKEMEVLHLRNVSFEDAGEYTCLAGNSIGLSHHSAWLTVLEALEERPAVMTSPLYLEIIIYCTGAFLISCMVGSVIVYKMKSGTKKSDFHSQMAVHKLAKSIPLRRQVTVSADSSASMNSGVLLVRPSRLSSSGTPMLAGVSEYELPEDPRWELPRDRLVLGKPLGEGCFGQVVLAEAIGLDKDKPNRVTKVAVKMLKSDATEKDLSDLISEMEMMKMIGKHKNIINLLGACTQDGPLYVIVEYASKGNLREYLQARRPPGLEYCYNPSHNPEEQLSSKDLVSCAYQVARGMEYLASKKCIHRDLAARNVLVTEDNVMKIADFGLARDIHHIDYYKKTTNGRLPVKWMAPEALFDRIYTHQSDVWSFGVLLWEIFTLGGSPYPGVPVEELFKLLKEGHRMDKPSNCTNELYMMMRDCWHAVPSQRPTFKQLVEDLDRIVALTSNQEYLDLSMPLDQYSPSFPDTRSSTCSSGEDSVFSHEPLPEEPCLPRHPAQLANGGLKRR
SH2 binding enrichment (SHP2-C SH2),SH2 binding enrichment (Grb2 SH2),SH2 binding enrichment (c-Src SH2),Sequence,phosphorylation enrichment (MERTK),phosphorylation enrichment (Fer (mouse)),phosphorylation enrichment (AncSZ),phosphorylation enrichment (FGFR1),phosphorylation enrichment (FGFR3),phosphorylation enrichment (EPHB1),phosphorylation enrichment (c-Src),phosphorylation enrichment (Fes),phosphorylation enrichment (Fyn),phosphorylation enrichment (Hck),phosphorylation enrichment (c-Abl (mouse)),phosphorylation enrichment (EPHB2),phosphorylation enrichment (Jak2)
0.8,0.869,5.75,KNNDGYTDFAE [MCFD2_Y135_I136T_YF],0.42,0.529,0.999,0.559,0.732,0.578,0.449,1.07,0.522,0.529,0.731,0.594,0.882
0.628,1.09,0.557,LATINYPFEKG [NDUFS8_Y84_P79L],0.377,0.5,0.827,0.503,0.576,0.565,0.467,0.914,0.421,0.401,0.64,0.484,0.642
0.742,0.866,0.611,IYRASYVPFAA [RBM47_Y541_G538R],0.66,0.521,1.04,0.562,0.645,0.81,0.681,0.897,0.593,0.657,7.02,0.571,0.82
0.715,0.841,0.578,HFGCVYYGTLL [MET_Y1093_H1094Y],1.11,1.76,1.88,2.69,2.19,1.5,8.21,2.43,3.77,2.43,1.82,1.42,2.13

# Second part, the sequence before the results:
Sequence,SH2 binding enrichment (SHP2-C SH2),SH2 binding enrichment (Grb2 SH2),SH2 binding enrichment (c-Src SH2),phosphorylation enrichment (MERTK),phosphorylation enrichment (Fer (mouse)),phosphorylation enrichment (AncSZ),phosphorylation enrichment (FGFR1),phosphorylation enrichment (FGFR3),phosphorylation enrichment (EPHB1),phosphorylation enrichment (c-Src),phosphorylation enrichment (Fes),phosphorylation enrichment (Fyn),phosphorylation enrichment (Hck),phosphorylation enrichment (c-Abl (mouse)),phosphorylation enrichment (EPHB2),phosphorylation enrichment (Jak2)
IVAEFYDNLPH [DEGS1_Y284_A280V_YF],0.695,0.727,0.931,0.853,0.978,0.929,0.477,0.624,0.517,0.733,0.891,0.549,3.36,0.694,0.556,0.792
KICDWYQRQRP [KRT14_Y151_R148C],0.75,0.854,0.616,0.511,0.513,1,0.466,0.598,0.398,0.48,0.9,0.447,0.407,0.555,0.602,0.651
DVSVVCSEVKT [FCRL4_Y493_Y493C],0.581,1.1,0.594,0.456,0.537,1.15,0.625,0.838,0.617,0.594,1.3,0.681,0.635,0.867,0.614,0.995
ALAAPYVLYPS [CEFIP_Y1332_G1337S],0.804,1.03,0.762,0.721,0.581,0.786,2.02,1.28,0.652,6.33,0.811,0.697,0.628,0.583,0.473,0.856
TRDTDYQMTKR [ADA_Y308_L304R],0.447,0.821,0.544,0.344,0.359,0.639,0.394,0.7,0.383,0.31,0.646,0.377,0.373,0.501,0.446,0.525
